From PMC11234460, “In Silico Discovery of Stapled Peptide Inhibitor Targeting the Nur77‐PPARγ Interaction and Its Anti‐Breast‐Cancer Efficacy” (Advanced Science, 2024)
Bridges are numbered along the chain shown (N, C = ends). [ ]: non-standard residue; d: D form. S5 = C=CCCC[C@](C)(N)C(=O)O

Molecular target: LBD fragment of human Nur77 (residues 351–598) (human), P22736
Test: SPR
Conditions: S-pentenyl-alanine (S5) at the i and i + 4 positions (Phe163 & Ile167), joined by ring-closing olefin metathesis (all-hydrocarbon staple), C-terminal primary amide X8 and X12 = S5 (S-pentenyl-alanine, replacing Phe163 and Ile167 of PPARγ), joined by an i,i+4 all-hydrocarbon staple (ring-closing olefin metathesis), free N-terminal amine, Tyr14 replaces Leu169, residues 15-25 are t, modification not given

Sequence of LBD fragment of human Nur77 (residues 351–598) (human), P22736 (P22736 351-598): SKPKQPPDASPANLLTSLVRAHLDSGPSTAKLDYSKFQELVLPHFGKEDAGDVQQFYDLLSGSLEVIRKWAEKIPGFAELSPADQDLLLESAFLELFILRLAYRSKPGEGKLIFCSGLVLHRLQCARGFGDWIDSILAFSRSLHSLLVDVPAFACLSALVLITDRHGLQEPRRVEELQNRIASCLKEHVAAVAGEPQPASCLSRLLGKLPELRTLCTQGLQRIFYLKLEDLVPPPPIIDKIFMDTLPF

- koff: 0.052 s⁻¹
B1: ST-CY14 (stapled T-CY14), P37231 156-169 (peptide)
chain: H-CEGCKGF[S5]RRT[S5]RYYGRKKRRQRRR-NH2
modifications: staple 8-12; cysteine pairing not given here
